Laboratory results reported in patent US20250002534A1.

Target: recombinant LanCL1 (Lanthionine synthetase C-like protein 1) (UniProt O43813)
Assay: competition: displacement of photoprobe SEQ ID NO:22 from rLANCL1, in-gel fluorescence

Chain of recombinant LanCL1 (Lanthionine synthetase C-like protein 1) (O43813 whole entry): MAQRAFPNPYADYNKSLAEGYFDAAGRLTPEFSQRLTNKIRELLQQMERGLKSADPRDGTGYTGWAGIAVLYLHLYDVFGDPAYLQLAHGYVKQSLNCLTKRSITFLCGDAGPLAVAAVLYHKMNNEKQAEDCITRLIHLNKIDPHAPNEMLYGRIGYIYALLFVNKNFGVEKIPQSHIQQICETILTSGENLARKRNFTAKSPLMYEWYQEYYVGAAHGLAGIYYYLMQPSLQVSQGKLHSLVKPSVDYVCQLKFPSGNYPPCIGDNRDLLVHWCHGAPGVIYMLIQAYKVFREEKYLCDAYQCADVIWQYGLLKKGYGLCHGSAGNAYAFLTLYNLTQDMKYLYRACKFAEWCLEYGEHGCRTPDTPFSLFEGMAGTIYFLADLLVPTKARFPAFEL

RALNSS [peptide of SEQ ID NO:39, RALNSS] showed an ED50 displacement value of over 200 µM.
